The values below come from article doi:10.1101/2020.06.09.143594 (bioRxiv, 2020).

The series concerns the molecule itself. In words: cross-linking.

B1: σ1 M332C, S370P, Q371E, S403C of the HeadΔSA mutant virus, on purified virions (natural protein, UniProt P04506 1-470, looked up)
chain: MDASLITEIRKIVLQLSVSSNGSQSKEIEEIKKQVQVNVDDIRAANIKLDGLGRQIADISNSISTIESRLGEMDNRLVGISSQVTQLSNSVSQNTQSISSLGDRINAVEPRVDSLDTVTSNLTGRTSTLEADVGSLRTELAALTTRVTTEVTRLDGLINSGQNSIGELSTRLSNVETSMVTTAGRGLQKNGNTLNVIVGNGMWFNSSNQLQLDLSGQSKGVGFVGTGMVVKIDTNYFAYNSNGEITLVSQINELPSRVSTLESAKIDSVLPPLTVREASGVRTLSFGYDTSDFTIINSVLSLRSRLTLPTYRYPLELDTANNRVQVADRFGCRTGTWTGQLQYQHPQLSWRANVTLNLMKVDDWLVLSFPEMTTNSIMADGKFVINFVSGLSSGWQTGDTEPCSTIDPLSTTFAAVQFLNNGQRIDAFRIMGVSEWTDGELEIKNYGGTYTGHTQVYWAPWTIMYPCNVR
Turning to B1, the binding result was “binds”.
